This note sets out measurements from patent US5879680A, “Cloned DNA for synthesizing unique glucocerebrosidase” (The United States of America as represented by the …, priority 1995, dated 1999).

Substrate in series [1]: Cc1cc(=O)oc2cc(O[C@@H]3O[C@H](CO)[C@@H](O)[C@H](O)[C@H]3O)ccc12
The series is described as follows: purified protein, by the assay type. The class given is biochemical, human. Conditions: other: recombinant enzyme in the media, pH 5.9, 100 mM potassium phosphate, 0.15% Triton X-100, 0.125% sodium taurocholate, 37.0 °C. The method, then: For pH profile and inhibition studies, glucocerebrosidase activity was measured using 100 mM potassium phosphate buffer containing 0.15% Triton X-100, 2.5 μl of β-D-[1-^14 C] glucocerebroside (7.5 mg/ml in sodium taurocholate at 50 mg/ml), and the sample in the total volume of 200 ul. Preincubations with conduritol-B-epoxide were for 30 min at 37° C. […] Purification of recombinant glucocerebrosidase was also monitored using 4MUGP.

Substrate in series [2]: Cc1cc(=O)oc2cc(O[C@@H]3O[C@H](CO)[C@@H](O)[C@H](O)[C@H]3O)ccc12
Kind of series: purified protein, by the assay type. Conditions: other: recombinant enzyme in the cell pellet, pH 5.9, 100 mM potassium phosphate, 0.15% Triton X-100, 0.125% sodium taurocholate, 37.0 °C.

B1: recombinant human glucocerebrosidase produced in baculovirus expression system (SF9 cells), culture media enzyme (Homo sapiens) (protein)
chain: ARPCIPKSFGYSSVVCVCNATYCDSFDPPTFPALGTFSRYESTRSGRRMELSMGPIQANHTGTGLLLTLQPEQKFQKVKGFGGAMTDAAALNILALSPPAQNLLLKSYFSEEGIGYNIIRVPMASCDFSIRTYTYADTPDDFQLHNFSLPEEDTKLKIPLIHRALQLAQRPVSLLASPWTSPTWLKTNGAVNGKGSLKGQPGDIYHQTWARYFVKFLDAYAEHKLQFWAVTAENEPSAGLLSGYPFQCLGFTPEHQRDFIARDLGPTLANSTHHNVRLLMLDDQRLLLPHWAKVVLTDPEAAKYVHGIAVHWYLDFLAPAKATLGETHRLFPNTMLFASEACVGSKFWEQSVRLGSWDRGMQYSHSIITNLLYHVVGWTDWNLALNPEGGPNWVRNFVDSPIIVDITKDTFYKQPMFYHLGHFSKFIPEGSQRVGLVASQKNDLDAVALMHPDGSAVVVVLNRSSKDVPLTIKDPAVGFLETISPGYSIHTYLWRRQ
notes: made in house; host or cells: Spodoptera frugiperda SF9 cells, recombinant baculovirus (AcNPV, pAc373/GC)
Take B1: the Km in series [1] amounted to 3.3 mM.

B2: recombinant human glucocerebrosidase produced in baculovirus expression system (SF9 cells), cell pellet enzyme (Homo sapiens) (protein)
chain: ARPCIPKSFGYSSVVCVCNATYCDSFDPPTFPALGTFSRYESTRSGRRMELSMGPIQANHTGTGLLLTLQPEQKFQKVKGFGGAMTDAAALNILALSPPAQNLLLKSYFSEEGIGYNIIRVPMASCDFSIRTYTYADTPDDFQLHNFSLPEEDTKLKIPLIHRALQLAQRPVSLLASPWTSPTWLKTNGAVNGKGSLKGQPGDIYHQTWARYFVKFLDAYAEHKLQFWAVTAENEPSAGLLSGYPFQCLGFTPEHQRDFIARDLGPTLANSTHHNVRLLMLDDQRLLLPHWAKVVLTDPEAAKYVHGIAVHWYLDFLAPAKATLGETHRLFPNTMLFASEACVGSKFWEQSVRLGSWDRGMQYSHSIITNLLYHVVGWTDWNLALNPEGGPNWVRNFVDSPIIVDITKDTFYKQPMFYHLGHFSKFIPEGSQRVGLVASQKNDLDAVALMHPDGSAVVVVLNRSSKDVPLTIKDPAVGFLETISPGYSIHTYLWRRQ
As to B2, the Michaelis constant (Km) in series [2] was 3.6 mM.
